Source: patent publication US6517838B1, “Decorin binding protein essential peptides and methods of use” (The Texas A&M University System, priority 2000, dated 2003)

B1: K-mod: DbpA with lysine residues chemically modified by DL-glyceraldehyde and sodium cyanoborohydride (protein)
chain: ATKIKLESSAKAIVDEIDAIKKKAASMGVNFDAFKDKKTGSGVSENPFILEAKVRATTVAEKFVIAIEEEATKLKETGSSGEFSAMYDLMFEVSKPLQELGIQEMTKTVSMAAEENPPTTAQGVLEIAKKMREKLQRVHKKNQDTLKKKNTEDSTAKS
modifications: left off: small tags and cut ends
notes: DbpA with lysine residues chemically modified by DL-glyceraldehyde and sodium cyanoborohydride
B2: DbpA: recombinant decorin binding protein A of B. burgdorferi strain 297, N-terminal His-tag fusion (protein)
chain: MIKCNNKTFNNLLKLTILVNLLISCGLTGATKIKLESSAKAIVDEIDAIKKKAASMGVNFDAFKDKKTGSGVSENPFILEAKVRATTVAEKFVIAIEEEATKLKETGSSGEFSAMYDLMFEVSKPLQELGIQEMTKTVSMAAEENPPTTAQGVLEIAKKMREKLQRVHKKNQDTLKKKNTEDSTAKS
modifications: N-terminal His-tag; Borrelia Burgdorferi

How the values were obtained:
decorin [1] = biological target: T1, decorin (Bos taurus, UniProt P21793); test: Binding of biotin-conjugated decorin to protein-coated microtiter wells; parameters: species or system bovine; details: 0.4 μg protein coated, 0.12 μg/ml biotin-decorin, compared to wild-type DbpA
T1 construct: Decorin from bovine fetal skin was purified and stored in 4 M guanidine hydrochloride; from tissue; host or cells: decorin from bovine fetal skin; DbpA made in E. coli JM101
T1 sequence (P21793 31-360): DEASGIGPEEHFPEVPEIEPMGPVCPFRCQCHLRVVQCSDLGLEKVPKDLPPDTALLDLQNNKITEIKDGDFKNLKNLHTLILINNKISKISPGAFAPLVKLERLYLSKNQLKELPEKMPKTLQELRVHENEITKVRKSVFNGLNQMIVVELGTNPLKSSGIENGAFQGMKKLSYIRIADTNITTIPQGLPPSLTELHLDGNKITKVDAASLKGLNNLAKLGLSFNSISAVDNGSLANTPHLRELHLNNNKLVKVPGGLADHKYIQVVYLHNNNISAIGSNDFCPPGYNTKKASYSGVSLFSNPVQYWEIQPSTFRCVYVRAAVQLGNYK
Description: (§1) Decorin from bovine fetal skin was purified and stored in 4 M guanidine hydrochloride at −80° C. and dialyzed extensively against PBS before use. Decorin was labeled with digoxigenin-3-O-methylcarbonyl-ε-aminocaproic acid-N-hydroxy-succinimide ester (digoxigenin) (Boehringer Mannheim, Indianapolis. Ind.) according to the manufacturer's instructions and stored at −20° C. To label decorin with biotin, 7.5 mg of NHS-LC-Biotin (sulfosuccinimidyl-6-(biotinamido) hexanoate) (Pierce, Rockford, Ill.) was dissolved in 100 μl of dimethyl sulfoxide and combined with 0.5 mg of decorin and 0.5 ml of 0.2 M sodium borate (pH 8.0) in a total reaction volume of 1 ml.
Immulon-1 microtiter plate wells (Dynatech Labs, Chantilly, Va.) were coated with 0.4 μg of DbpA (SEQ ID 1), DbpA mutants and K-mod in 50 μl PBS overnight at 4° C. The wells were washed and then blocked with 200 μl of Super Block (Pierce) for 1 h. After washing, 0.12 μg/ml of biotin-conjugated decorin in 100 μl of Super Block was added to the wells and incubated for 1 h. After washing, 100 μl of a 1:10,000 dilution of alkaline phosphatase (AP)-conjugated streptavidin (1 U/ml) (Boehringer Mannheim) was added and incubated for 1 h. […] The absorbance was determined in a Microplate Reader (Molecular Devices, Menlo Park, Calif.). […]

decorin [2] = biological target: T1, decorin; test: Western ligand blot with digoxigenin-labeled decorin; assay type: binding, bovine; details: SDS-PAGE reducing, probed with digoxigenin-labeled decorin
Description: as §1
Proteins (purified DbpA, DbpA site-directed mutants and OspC) were subjected to SDS-PAGE (reducing conditions) and probed with rabbit anti-DbpA polyclonal sera (R625) or with digoxigenin-labeled decorin.
Further, the side chains of lysine residues were chemically modified and the binding properties of the resulting protein examined. […] Both forms of DbpA migrated as two bands, monomers at 20 and 21 kDa and dimers at 40 and 42 kDa for DbpA and chemically modified DbpA (K-mod), respectively. The decorin binding activity of the DbpA and lysine-modified DbpA was examined in a Western ligand blot assay (FIG. 6B).

[3] = tested on: B. burgdorferi strain B31; test: Joint cultures for spirochetes after infection of immunized mice; assay type: in vivo; details: immunized C3H/HeJ mice, joints 14 days post infection
Description: (§2) Mice were immunized with recombinant DbpA (SEQ ID 1), P2 (SEQ ID 3), P4 (SEQ ID 5), P5 (SEQ ID 6), P4/P5 (SEQ ID 5/SEQ ID 6), P9 (SEQ ID 10), or the corresponding lysine modified counterparts (P2 Mod, P4 Mod, P5 Mod or P9 Mod) using the immunization schedule established by Hanson (11). Briefly, mice were immunized with 20 μg of protein or peptide in complete Freund's adjuvant (CFA) (Week 1), boosted at week 4 with the same dose in incomplete Freund's adjuvant (IFA) and infected at week 6.
(§3) Low-passage B. burgdorferi strain B31 (passage 5) was used in this study and cultured in BSK II (Barbour-Stoenner-Kelly) medium at 34° C. (22). Bacterial cultures were incubated in CO2-enriched atmosphere in a GasPak chamber (BBL, Baltimore, Md.) containing BBL GasPak Plus envelopes and a GasPak anaerobic indicator (Beckton dickinson, Cockeysville, Md.) until the cells reached log phase. Bacterial counts were determined using dark field microscopy and a Petroff-Hausser chamber.
(§4) Mice (15 mice/group) were anesthetized with Metofane (methoxyflurane; Pitman-Moore, Mundelein, Ill.) and 10 mice/ group were infected i.d. at the base of the tail with 10^4 Borrelia in 100 μl of media 6 six weeks after the first immunization. The remaining 5 mice/group were tested for a DTH response to recombinant DbpA. Following infection, mice were bled 7 and 14 days postinfection. […]

[4] = tested on: B. burgdorferi strain B31; test: Arthritis assessment, histopathology of hind tibiotarsal joints of immunized infected mice; assay type: in vivo
Description: as §2
Mice (15 mice/group) were anesthetized with Metofane (methoxyflurane; Pitman-Moore, Mundelein, Ill.) and 10 mice/ group were infected i.d. at the base of the tail with 10^4 Borrelia in 100 μl of media 6 six weeks after the first immunization. The remaining 5 mice/group were tested for a DTH response to recombinant DbpA. Following infection, mice were bled 7 and 14 days postinfection. Serum was collected for antibody analysis and blood cultured for the detection of live spirochetes by inoculating 5 ml of BSK II medium with 50 μl of blood from each infected mouse and cultured for 2 weeks at 34° C. as described above. Also on day 14 postinfection, mice were sacrificed and one hind tibiotarsal joint, heart, bladder, and a 3 mm skin biopsy from the ear were aseptically removed and inoculated into separate tubes containing 6 ml of BSK II medium with antibiotics (50 μg/ml rifampacin and 100 μg/ml phosphomycin (Sigma), and incubated for 2 weeks at 34° C. as described above. Evidence of arthritis was determined by histopathological examination of formalin-fixed hind tibiotarsal joint samples.
Evidence of arthritis was determined by histopathological examination of formalin-fixed hind tibiotarsal joint samples. Tissues for histological examination were embedded in paraffin and stained with hematoxylin and eosin. All sections were examined without knowledge of the vaccination status of the mouse. Arthritis was scored by one of two methods. A positive/negative assessment was used, as well as assignment of an arthritis severity score. Joints were scored according to the levels of infiltrate (neutrophils) as follows: 0, no arthritis, 1, minimal or rare (≦10% tissue involvement); 2, mild (10-20%); […]; and 4, severe (>50%).
A similar trend was also observed for joints examined for arthritis (Table I). DbpA-(SEQ ID 1), P4-(SEQ ID 5), and P5-(SEQ ID 6) immunized mice had the lowest arthritis ratings (0.2, 1.2, and 0.4, respectively) and lowest arthritis incidence (20, 60, and 20%, respectively).

recombinant DbpA = test: Delayed-type hypersensitivity (DTH) to DbpA, footpad swelling in immunized mice; assay type: in vivo, B. burgdorferi
Description: as §2
Native C3H/HeJ mice immunized with DbpA (SEQ ID 1), P2 (SEQ ID 3), P4 (SEQ ID 5), P5 (SEQ ID 6), P4/P5 (SEQ ID 5/SEQ ID 6), P9 (SEQ ID 10), or the corresponding lysine modified counterparts (P2 Mod, P4 Mod, P5 Mod or P9 Mod) were challenged with 2 μg of recombinant DbpA in PBS (50 μl/footpad) 7 weeks after the initial immunization. All footpads were measured before and 24 h after challenge using a spring-loaded micrometer (Mitutoyo, Tokyo, Japan) as described (23). The mice were anesthetized as described above during footpad measurements and injections. Swelling was determined by subtracting the footpad measurements before challenge from those taken 24 h after challenge.
DTH is an in vivo method of testing T cell-dependent immune responses that are manifested by inflammation at the site of antigenic challenge. Mice immunized with DbpA (SEQ ID 1), P2 (SEQ ID 3), P4 (SEQ ID 5), P5 (SEQ ID 6), P4/P5 (SEQ ID 5/SEQ ID 6) combined, P9 (SEQ ID 10), or the corresponding lysine-modified peptides were challenged in the footpad with 2 μg of recombinant DbpA (SEQ ID 1). Footpad measurements were taken before and after challenge as described above. DbpA (SEQ ID 1)-immunized mice developed a significant footpad swelling of 53.3±3.5 (not shown) compared to mice immunized with adjuvant alone or naive mice receiving only the DbpA (SEQ ID 1) challenge. Peptide-immunized mice, with the exception of P2 (SEQ ID 3), also developed a significant DTH response to DbpA (SEQ ID 1) compared to the lysine-modified controls.

[5] = tested on: polyclonal, rabbit anti-DbpA (625); test: ELISA recognition of DbpA-peptides by polyclonal anti-DbpA serum; assay type: binding; details: 2 μg peptide/well, 1:1000 anti-DbpA serum, FIG. 2
Description: Immulon-1 microtiter plate wells (Dynatech Labs, Chantilly, Va.) were coated with 2.0 μg of each peptide in 50 μl of PBS overnight at 4° C. The wells were washed and then blocked with 400 μl of Super Block (Pierce, Rockford, Ill.). All incubations were done at 37° C. and all dilutions were made using Super Block. After washing, 100 μl of a 1:1000 dilution of polyclonal, rabbit anti-DbpA (625) (17) was added for 1 hr. After washing, 100 μl of a 1:1000 dilution of AP-conjugated anti-rabbit IgG (Bio-Rad, Hercules, Calif.) was added for 1 hr. The wells were washed and incubated with 100 μl of a 1 mg/ml of Sigma 104 phosphatase substrate (Sigma Chemical Co., St. Louis, Mo.) dissolved in 1 M diethanolamine, 0.5 mM MgCl2, pH 9.8. Plates were washed with 0.05% PBS-Tween 20 between all steps. The absorbance at 410 nm was determined in a Microplate Reader (Molecular Devices, Menlo Park, Calif.).
Immunizations utilizing peptide formulations require that immune responses to the peptide(s) result in recognition of native-protein epitopes. […] Cross-reactivity of peptide epitopes with native protein was examined by ELISA.

[6] = tested on: B. burgdorferi strain B31; test: Blood cultures for spirochetes after infection of immunized mice; assay type: in vivo; details: immunized C3H/HeJ mice, blood 7 days post infection with 10^4 Borrelia i.d.
Description: as §2, §3, §4

Row | Molecule | binding of biotin-conjugated decorin to coated microtiter wells (decorin [1]) | decorin binding in Western ligand blot (decorin [2]) | positive joint cultures [3] [%] | arthritis incidence and severity (in words) ([4]; immunized infected mice) | % Incidence (arthritis) ([4]; immunized mice, day 14 post infection, tibiotarsal joint histology) [%] | Mean Arthritis Rating ([4]; severity score 0-4 by neutrophil infiltrate, day 14 post infection) | DTH response to DbpA (in words) (recombinant DbpA; C3H/HeJ mice immunized with 20 μg, challenged with 2 μg recombinant DbpA in footpad, 24 h) | footpad swelling (recombinant DbpA; C3H/HeJ mice, 24 h after challenge with 2 μg recombinant DbpA, mean±SE) | recognition by anti-DbpA serum (ELISA, O.D. 410 nm) [5] | positive blood cultures [6]
1 | B1 | essentially unable to support the binding of decorin | loss of decorin binding | – | – | – | – | – | – | – | –
2 | B2 | – | bound digoxigenin-labeled decorin | 20 | lowest | 20 | 0.2 | significant inflammation | 53.3±3.5 | recognized | 50-60%
